Experimental data from patent US20090297524A1 (DOMANTIS, published 2009).

T1: Recombinant human CD40L (human, UniProt P29965 108-261, limits assumed)
T1 construct: also called CD40 ligand
T1 sequence (looked up): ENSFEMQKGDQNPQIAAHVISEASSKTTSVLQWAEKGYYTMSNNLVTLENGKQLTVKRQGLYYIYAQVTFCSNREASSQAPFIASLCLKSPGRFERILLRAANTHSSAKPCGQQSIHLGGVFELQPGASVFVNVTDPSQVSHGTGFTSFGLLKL


What follows are binders tested against T1, Recombinant human CD40L (assay: CD40L receptor binding assay: inhibition of CD40L (3 ng/ml) binding to coated CD40/Fc; 40K PEG).
Experimental: (§1) A 96 well Nunc Maxisorp assay plate was coated overnight at 4° C. with 100 μl per well of recombinant human CD40/Fc (R&D Systems) at 0.5 μg/ml in carbonate buffer. The plate was washed 3 times with 300 μl of 0.05% Tween/PBS and 3 times with 300 μl of PBS using a Tecan plate washer. The wells were blocked using 200 μl of PBS containing 2% (w/v) BSA and incubated for a minimum of 1 h at room temperature. The wells were washed as above, then 50 μl of purified dAb protein was added to each well. […] The plate was washed as described above, then 100 μl HRP conjugated anti-biotin antibody (1:5000 dilution in diluent) added to each well and the plate incubated for 1 hr at room temperature. The plate was washed again as described above using a Tecan plate washer and the assay developed using 100 μl of SureBlue 1-Component TMB MicroWell Peroxidase solution (the plate was left at room temperature for up to 20 min). The reaction was stopped by the addition of 100 μl M hydrochloric acid. The OD₄₅₀ₙₘ of the plate was assayed within 30 minutes of acid addition. The OD₄₅₀ₙₘ is proportional to the amount of bound streptavidin-HRP conjugate, therefore the greater the degree of dAb inhibition the lower the OD₄₅₀ₙₘ of the resulting signal.

Binder	IC50
40K PEG2-MAL PEGylated DOM8-24cys (other, 40K PEG2-MAL on the engineered C-terminal cysteine, PEGylated monomer; also called 40K PEG DOM8-24cys) VH: ASTEVQLLESGGGLVQPGGSLRLSCAASGFTFSNYQMAWVRQAPGKGLEWVSSITSEGGSTYYADSVKGRFTISRDNSKNTLYLQMNSLRAEDTAVYYCAKPGKNFDYWGQGTLVTVSC	~1 nM

What follows are binders tested against T1, Recombinant human CD40L (assay: CD40L receptor binding assay (RBA, ELISA): dAb titrated against 3 ng/ml CD40L binding to plate-coated CD40/Fc).
Experimental: as §1

Binder	IC50 (read off the curve)
DOM8-24cys (other, VH dAb DOM8-24 with an engineered C-terminal cysteine (last Ser replaced by Cys); also called unmodified protein) VH: ASTEVQLLESGGGLVQPGGSLRLSCAASGFTFSNYQMAWVRQAPGKGLEWVSSITSEGGSTYYADSVKGRFTISRDNSKNTLYLQMNSLRAEDTAVYYCAKPGKNFDYWGQGTLVTVSC	~0.6 nM
30K PEG-MAL PEGylated DOM8-24cys (other, 30K PEG-MAL on the engineered C-terminal cysteine, PEGylated monomer; also called 30K PEG DOM8-24cys) VH: ASTEVQLLESGGGLVQPGGSLRLSCAASGFTFSNYQMAWVRQAPGKGLEWVSSITSEGGSTYYADSVKGRFTISRDNSKNTLYLQMNSLRAEDTAVYYCAKPGKNFDYWGQGTLVTVSC	~0.5 nM
40K PEG2-MAL PEGylated DOM8-24cys (other, 40K PEG2-MAL on the engineered C-terminal cysteine, PEGylated monomer; also called 40K PEG DOM8-24cys) VH: ASTEVQLLESGGGLVQPGGSLRLSCAASGFTFSNYQMAWVRQAPGKGLEWVSSITSEGGSTYYADSVKGRFTISRDNSKNTLYLQMNSLRAEDTAVYYCAKPGKNFDYWGQGTLVTVSC	~1 nM

These binders were tested against T1, Recombinant human CD40L (assay: CD40L receptor binding assay: dAb inhibits CD40L (3 ng/ml) binding to coated CD40/Fc).
Experimental: (§2) A 96 well Nunc Maxisorp assay plate was coated overnight at 4° C. with 100 μl per well of recombinant human CD40/Fc (R&D Systems) at 0.5 μg/ml in carbonate buffer. The plate was washed 3 times with 300 μl of 0.05% Tween/PBS and 3 times with 300 μl of PBS using a Tecan plate washer. The wells were blocked using 200 μl of PBS containing 2% (w/v) BSA and incubated for a minimum of 1 h at room temperature. The wells were washed as above, then 50 μl of purified dAb protein (or unpurified supernatant containing dAb from a micro-culture expression) was added to each well.
(§3) The plate was washed as described above, then 100 μl HRP conjugated anti-biotin antibody (1:5000 dilution in diluent) added to each well and the plate incubated for 1 hr at room temperature. The plate was washed again as described above using a Tecan plate washer and the assay developed using 100 μl of SureBlue 1-Component TMB MicroWell Peroxidase solution (the plate was left at room temperature for up to 20 min). The reaction was stopped by the addition of 100 μl M hydrochloric acid. The OD₄₅₀ₙₘ of the plate was assayed within 30 minutes of acid addition. The OD₄₅₀ₙₘ is proportional to the amount of bound streptavidin-HRP conjugate, therefore the greater the degree of dAb inhibition the lower the OD₄₅₀ₙₘ of the resulting signal.

Binder	IC50
DOM-8 (other, Vk dAb) VL: DIQMTQSPSSLSASVGDRVTITCRASQFIDTSLEWYQQKPGKAPKLLIYDGSHLQSGVPSRFSGSGSGTDFTLTISSLQPEDLATYYCQQYWVLPLTFGQGTKVEIKR	900 nM
DOM-2 (other, VH dAb) VH: EVQLLESGGGLVQPGGSLRLSCAASGFTFSDYEMMWVRQAPGKGLEWVSTITSDGISTYYADSVKGRFTIFRDNSKNTLYLQMNSLRAEDTAVYYCAKSGRFFDYWGQGTLVTVSS	800 nM
DOM-5 (other, VH dAb) VH: EVQLLESGGGLVQPGGSLRLSCAASGFTFDGYEMAWVRQAPGKGLEWVSSITSDGTSTYYADSVKGRFTISRDNSKNTLYLQMNSLRAEDTAVYYCAKPGLRFDYWGQGTLVTVSS	3 nM
DOM-24 (other, VH dAb; also called DOM8-24; monomeric DOM-24) VH: EVQLLESGGGLVQPGGSLRLSCAASGFTFSNYQMAWVRQAPGKGLEWVSSITSEGGSTYYADSVKGRFTISRDNSKNTLYLQMNSLRAEDTAVYYCAKPGKNFDYWGQGTLVTVSS	0.417 nM
DOM-4 (other, VH dAb) VH: EVQLLESGGGLVQPGGSLRLSCAASGFTFDNYEMTWVRQAPGKGLEWVSSITSDGTSTYYADSVKGRFTISRDNSKNTLYLQMNSLRAEDTAVYYCAKPNPPFDYWGQGTLVTVSS	100 nM
DOM-7 (other, VH dAb) VH: EVQLLESGGGLVQPGGSLRLSCAASGFTFNLYEMTWVRQAPGKGLEWVSSITSDGVSTYYADSVKGRFTISRDNSKNTLYLQMNSLRAEDTAVYYCAKAGVIFDYWGQGTLVTVSS	1500 nM
DOM-20 (other, VH dAb) VH: EVQLLESGGGLVQPGGSLRLSCAASGFTFSGYQMAWVRQAPGKGLEWVSGISSEGLTTYYADSVKGRFTISRDNSKNTLYLQMNSLRAEDTAVYYCAKLGRRFDYWGQGTLVTVSS	8 nM
DOM-10 (other, VH dAb) VH: EVQLLESGGGLVQPGGSLRLSCAASGFTFIAYDMSWVRQAPGKGLEWVSWIDEWGLQTYYADSVKGRFTISRDNSKNTLYLQMNSLRAEDTAVYYCAKKTPEEFDYWGQGTLVTVSS	50 nM

Next, values leading:

IC50	Binder
~100 nM	DOM-27 (other, VH dAb) VH: EVQLLESGGGLVQPGGSLRLSCAASGFTFNLYEMTWVRQAPGKGLEWVSSITSDGVSTYYADSVKGRFTISRDNSKNTLYLQMNSLRAEDTAVYYCAKPDSPFDYWGQGTLVTVSS
8 nM	DOM-30 (other, VH dAb) VH: EVQLLESGGGLVQPGGSLRLSCAASGFTFARYQMAWVRQAPGKGLEWVSTISDDGDSTYYADSVKGRFTISRDNSKNTLYLQMNSLRAEDTAVYYCAKLDKLFDYWGQGTLVTVSS
8 nM	DOM-31 (other, VH dAb) VH: EVQLLESGGGLVQPGGSLRLSCAASGFTFEEYQMAWVRQAPGKGLEWVSTISDDGSSTYYADSVKGRFTISRDNSKNTLYLQMNSLRAEDTAVYYCAKPDLYFDYWGQGTLVTVSS
40 nM	DOM-77 (other, VH dAb) VH: EVQLLESGGGLVQPGGSLRLSCAASGFTFEEYGMAWVRQAPGKGLEWVSTISPLGISTYYADSVKGRFTISRDNSKNTLYLQMNSLRAEDTAVYYCAKHATSQESLRSFDYWGQGTLVTVSS

Each binder was assayed against T1, Recombinant human CD40L (assay: CD40L/CD40-Fc receptor binding assay;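 further: plate assay with coated human CD40-Fc, bound ligand detected via HRP anti-biotin antibody and TMB, OD at 450 nm, lower signal indicates stronger inhibition by dAb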).
Experimental: as §2, §3

Binder	binding result
DOM-70 (other, VH dAb) VH: EVQLLESGGGLVQPGGSLRLSCAASGFTFENYAMSWVRQAPGKGLEWVSTIAPLGVPTYYADSVKGRFTISRDNSKNTLYLQMNSLRAEDTAVYYCAKKKVGAWLQSRSFDYWGQGTLVTVSS	binds
DOM-71 (other, VH dAb) VH: EVQLLESGGGLVQPGGSLRLSCAASGFTFEGYPMSWVRQAPGKGLEWVSTISPLGPDTYYADSVKGRFTISRDNSKNTLYLQMNSLRAEDTAVYYCAKLLMGEYLNSRTFDYWGQGTLVTVSS	binds
DOM-75 (other, VH dAb) VH: EVQLLESGGGLVQPGGSLRLSCAASGFTFLQYPMGWVRQAPGKGLEWVSTISPVGLTTYYADSVKGRFTISRDNSKNTLYLQMNSLRAEDTAVYYCAKLFEGSRIQRDVGFDYWGQGTLVTVSS	binds
DOM-69 (other, VH dAb) VH: EVQLLESGGGLVQPGGSLRLSCAASGFTFLDYGMAWVRQAPGKGLEWVSAISPLGLSTYYADSVKSRFTISRDNSKNTLYLQMNSLRAEDTAVYYCAKEVRVGRGVHPPKFDYWGQGTLVTVSS	binds
DOM.88 (other, Vk dAb) VL: DIQMTQSPSSLSASVGDRVTITCRASQEIVEDLYWYQQKPGKAAKLLIYGASWLQSGVPSRFSGSGSGTDFTLTISSLQPEDFATYYCQQTRRRPYTFGQGTKVEIKR	binds
DOM-87 (other, Vk dAb) VL: DIQMTQSPSSLSASVGDRVTITCRASQDIDESLMWYQQKPGKAPRLLIYGVSYLQSGVPSRFSGSGSGTDFTLTISSLQPEDFATYYCQQRWKAPFTFGQGTKVEIKR	binds
DOM-81 (other, VH dAb) VH: EVQLLESGGGLVQPGGFLRLSCAASGFTFELYPMAWVRQAPGKGLEWVSSISPVGFLTYYADSVKGRFTISRDNSKNTLYLQMNSLRAEDTAVYYCAKGHEGSYTPRSAFDYWGQGTLVTVSS	binds
DOM-82 (other, VH dAb) VH: EVQLLESGGGLVQPGGSLRLSCAASGFTFVAYPMAWVRQAPGKGLEWVSTIAPLGGNTYYADSVKGRFTISRDNSKNTLYLQMNSLRAEDTAVYYCAKRPEGLQIDSQNFDYWGQGTLVTVSS	binds
DOM-85 (other, VH dAb) VH: EVQLLESGGGLVQPGGSLRLSCAASGFTFEQYDMRWVRQAPGKGLEWVSWIDEAGHETYYADSVKGRFTISRDNSRNTLYLQMNSLRAEDTAVYYCAKGMDGFDYWGQGTLVTVSS	binds
DOM-72 (other, VH dAb) VH: EVQLLESGGGLVQPGGSLRLSCAASGFTFEAYPMSWVRQAPGKGLEWVSSISPLGLWTYYADSVKGRFTISRDNSKNTLYLQMNSLRAEDTAVYYCAKLSAGAETHVYRLFDYWGQGTLVTVSS	binds

The binders below were run against T1, Recombinant human CD40L (assay: CD40L receptor binding assay: inhibition of CD40L (3 ng/ml) binding to coated CD40/Fc; 30K PEG).
Experimental: as §1

Binder	IC50
30K PEG-MAL PEGylated DOM8-24cys (other, 30K PEG-MAL on the engineered C-terminal cysteine, PEGylated monomer; also called 30K PEG DOM8-24cys) VH: ASTEVQLLESGGGLVQPGGSLRLSCAASGFTFSNYQMAWVRQAPGKGLEWVSSITSEGGSTYYADSVKGRFTISRDNSKNTLYLQMNSLRAEDTAVYYCAKPGKNFDYWGQGTLVTVSC	~1 nM
